According to the supplement of paper PMC10126150:
± gives the standard deviation of the averaged measurements.

Tested on: ATP
Experiment: switch fluorescence ratio, 500 uM ATP over buffer (Cy3 cluster intensity, sum of 5 cycles each) (fold (ratio)); higher = stronger signal-on switching upon ATP binding; sequences stand for … in TCGTCGGCAGCGTCAGATGTGTATAAGAGACAGTTTTTTTTTTTTTTTTTTTTTTTTT…TC
Conditions: aptamer strand: ATP DNA aptamer (quencher-CACCTGGGGGAGTATTGCGGAGGAAGG + anchor), 100 nM annealed; ATP concentration: 500 uM
Procedure, shortened: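 Cy3-labelled switching-strand clusters on a modified Illumina MiSeq flow-cell were annealed to 100 nM quencher-labelled ATP aptamer, imaged in selection buffer, then imaged after 15 min with 500 uM ATP at 22 °C. Five buffer/ATP cycles ran, with NaOH stripping and re-annealing between them. The fluorescence ratio is summed target-cycle over summed buffer-cycle Cy3 intensity per cluster, averaged per switch-domain sequence. Clusters outside 100-1000 RFU were excluded.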
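Further: ATP exposure 15 min at 22 °C before imaging.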

Sequence	switch fluorescence ratio
AGGGGGTAAA	0.975 ± 0.021
TCACGGTAAT	1.16 ± 0.097
TATACCTTAA	1.051 ± 0.0042
GTGGTTCTAT	0.996 ± 0.026
GGCTGACGTC	1 ± 0.038
TTGTGACGGG	1 ± 0.023
GTGTTATGAG	0.995 ± 0.067
TCGGTCCTGC	1 ± 0.024
GCATGGTTGG	0.976 ± 0.034
GATCCTAACG	1.04 ± 0.048
TAATGTATTT	1.01 ± 0.02
TGGGTAGGGG	0.985 ± 0.025
TTACGGGCGA	0.998 ± 0.029
GTTAGTACTG	0.96042 ± 0.00063
CGGCATGCGG	1.022 ± 0.0035
AAATGCTTTA	1.03 ± 0.022
GTTTTGTTGT	0.99 ± 0.027
ATGTGGGATA	1.01 ± 0.063
ACATTGATCG	1.03 ± 0.017
ATTTTTAACT	0.99578 ± 0.00077
TTTATGTCCA	0.9923 ± 0.0021
ATCTCTGGTT	0.966 ± 0.031
CATTATCATT	0.97 ± 0.018
TTCGTGCGGC	1.06 ± 0.042
AATTCGCGTT	0.9868 ± 0.004
AAAATCTGCG	1.03 ± 0.041

Sequence	switch fluorescence ratio
ACGTGTATTT	1.08 ± 0.09
TTGATTTTCA	0.999 ± 0.015
TGTTTGTTAG	1.04 ± 0.048
GTTGGTAGGG	0.9979 ± 0.0099
GGGCATGGTG	1.05 ± 0.025
TAGGGTTCTT	1.03 ± 0.029
TGAGTCGAGC	1.014 ± 0.0066
TTAGTCGTCG	1 ± 0.06
CCATTTTATT	0.988 ± 0.031
GGTTGCACAG	1.005 ± 0.0043
ATTTACCGGA	1.04 ± 0.052
GATAAACAAT	1.19 ± 0.28
ATACGCAGCG	0.998 ± 0.01
ATGGATGGTG	0.96 ± 0.029
ATTGAATTCT	1.02 ± 0.14
TATGAGGGG	0.999 ± 0.027
GCTTAAAGGC	1.01 ± 0.03
TTGAGTGTTA	1.01 ± 0.011
CGTACCATCC	1.6 ± 0.18
TTTTTGTAAA	0.9936 ± 0.003
TCGGCGTTCA	1.02 ± 0.02
GGCCTAAAAG	0.978 ± 0.022
GTTTATCGGG	0.964 ± 0.0099
GAGGGGTGTG	0.993 ± 0.029
TATGATATGG	1.04 ± 0.025
TTATAATACT	1.04 ± 0.019

Sequence	switch fluorescence ratio
GATGCTGTGC	1.0328 ± 0.00033
ATGGTGAGGC	0.95 ± 0.018
TGGGGGACTG	1.05 ± 0.054
AGCCGAGTTC	1.01 ± 0.049
ACGGTTTGCG	0.979 ± 0.011
CGTAATTGTA	1.01 ± 0.018
TATTTAAGTG	1.039 ± 0.0092
GTATCCCCCG	1.03 ± 0.041
TGGACGGCGC	1.04 ± 0.016
TTTTACTCCG	3.1 ± 1.9
CGGGCTTATT	0.988 ± 0.02
TGAATCTGTT	1.02 ± 0.05
ATGGAGCGTG	0.994 ± 0.018
AGCGAAGCTG	1.01 ± 0.011
CGATATAGGA	0.992 ± 0.011
CTCTGGGAGG	0.995 ± 0.021
CGGATTAGGT	0.993 ± 0.028
ACAGCGTGTG	1.03 ± 0.011
TTTTTCACGT	1.02 ± 0.029
CAAAATTCCG	1.08 ± 0.017
TTTGACATGG	0.955 ± 0.029
AGGGAAGCTT	0.972 ± 0.035
CGTGAACATA	1.02 ± 0.034
TAGGAGTGAG	0.979 ± 0.026
AAGTGGTCAC	1.01 ± 0.029
